Residue numbers refer to the chain shown, from its start. Values belong to the molecule of their own block, whether it stands above or below them.
Legend:
GLP1R = GLP1R (Homo sapiens, UniProt P43220); experiment: Binding assay with flow cytometry on flag-GLP1R-GFP expressing CHO cells (CHO-GLP1R); conditions: 100 nM IgG
Description: (§1) Briefly, flag-GLP1R-GFP expressing CHO cells (CHO-GLP1R) and CHO-parent cells were incubated with 100 nM IgG for 1 hour on ice, washed three times and incubated with Alexa 647 conjugated goat-anti-human antibody (1:200) for 30 minutes on ice, followed by three washes. All incubations and washes were performed in buffer containing PBS and 0.5% BSA. For titrations, IgG was serially diluted 1:3 starting from 100 nM. […] Analyses of binding assays with IgG titrations presented as binding curves plotting IgG concentrations against MFI (mean fluorescence intensity) are seen in FIGS. 15A-15H. Flow cytometry data of binding assays presented as dot plots with 100 nM IgG are seen in FIGS. 16A-16I.
(§2) The GLP1R IgGs were then assayed in binding assays coupled to flow cytometry analysis using similar methods as described in Example 12. Briefly, stably expressing Flag-GLP1R-GFP CHO cells or CHO-parent cells were incubated with primary IgG (100 nM or 1:3 titrations). Secondary antibody incubation involved Alexa 647 conjugated goat-anti-human IgG. Flow cytometry measured the GFP signal against the Alexa 647 signal to identify IgGs that specifically bound to the target (GLP1R).

CHO-parent cells = experiment: Binding assay with flow cytometry on CHO-parent cells; conditions: 100 nM IgG
Description: as §1, §2

[1] = Thermal ramp stability (Tm and Tagg), UNcle platform; type: physicochemical
Source text: The GLP1R IgGs were characterized for thermal ramp stability (Tm and Tagg). The UNcle platform was used to characterize the IgGs and the data is seen in Table 21.

GLP1R, sequence (P43220 24-463): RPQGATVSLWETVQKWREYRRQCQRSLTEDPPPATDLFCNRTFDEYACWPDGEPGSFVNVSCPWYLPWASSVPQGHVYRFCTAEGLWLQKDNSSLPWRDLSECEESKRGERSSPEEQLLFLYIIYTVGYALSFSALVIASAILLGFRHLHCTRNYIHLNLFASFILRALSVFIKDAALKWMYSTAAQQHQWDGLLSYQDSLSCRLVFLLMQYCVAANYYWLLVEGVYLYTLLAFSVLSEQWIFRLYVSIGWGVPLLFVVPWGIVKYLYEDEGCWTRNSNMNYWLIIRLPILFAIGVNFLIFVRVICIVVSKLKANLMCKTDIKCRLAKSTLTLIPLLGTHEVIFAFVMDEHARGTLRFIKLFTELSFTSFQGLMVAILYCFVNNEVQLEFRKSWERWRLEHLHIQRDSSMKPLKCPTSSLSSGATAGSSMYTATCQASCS

binding to CHO-GLP1R (GLP1R): found to bind to CHO-GLP1R
B1: GLP1R-240: GLP1R scFv clone reformatted to IgG2; CDR-H3 SEQ ID NO 2298, heavy 2305, light 2312 (antibody)
heavy: MEWSWVFLFFLSVTTGVHSQVQLVQSGAEVKKPGSSVKVSCKASGGTFNNYGISWVRQAPGQGLEWMGGIIPVFGTANYAQKFQGRVTITADESTSTAYMELSSLRSEDTAVYYCARDMYYDFFGLGTFTSDVSSYLEGQAAKEFIAWLVKGVSPEVVPADDAFDIWGQGTLVTVSSASASTKGPSVFPLAPCSRSTSESTAALGCLVKDYFPEPVTVSWNSGALTSGVHTFPAVLQSSGLYSLSSVVTVPSSNFGTQTYTCNVDHKPSNTKVDKTVERKCCVECPPCPAPPVAGPSVFLFPPKPKDTLMISRTPEVTCVVVDVSHEDPEVQFNWYVDGVEVHNAKTKPREEQFNSTFRVVSVLTVVHQDWLNGKEYKCKVSNKGLPAPIEKTISKTKGQPREPQVYTLPPSREEMTKNQVSLTCLVKGFYPSDIAVEWESNGQPENNYKTTPPMLDSDGSFFLYSKLTVDKSRWQQGNVFSCSVMHEALHNHYTQKSLSLSPG
light: MSVPTQVLGLLLLWLTDARCQSVLTQPPSVSAAPGQKVTISCSGSSSSIGNNYVSWYQQLPGTAPKLLIYANNKRPSGIPDRFSGSKSGTSATLGITGLQTGDEADYYCATWSSSPRGWVFGGGTKLTVLGQPKAAPSVTLFPPSSEELQANKATLVCLISDFYPGAVTVAWKADSSPVKAGVETTTPSKQSNNKYAASSYLSLTPEQWKSHRSYSCQVTHEGSTVEKTVAPTECS

binding to CHO-GLP1R (GLP1R): found to bind to CHO-GLP1R
B2: GLP1R-238: GLP1R scFv clone reformatted to IgG2; CDR-H3 SEQ ID NO 2296, heavy 2303, light 2310 (antibody)
heavy: MEWSWVFLFFLSVTTGVHSQVQLVQSGAEVKKPGSSVKVSCKASGGSFSSHAISWVRQAPGQGLEWMGGIIPIFGAPNYAQKFQGRVTITADESTSTAYMELSSLRSEDTAVYYCARANQHFSQAGRAARVPGPSSSLGPRGYHYYGMDVWGQGTLVTVSSASASTKGPSVFPLAPCSRSTSESTAALGCLVKDYFPEPVTVSWNSGALTSGVHTFPAVLQSSGLYSLSSVVTVPSSNFGTQTYTCNVDHKPSNTKVDKTVERKCCVECPPCPAPPVAGPSVFLFPPKPKDTLMISRTPEVTCVVVDVSHEDPEVQFNWYVDGVEVHNAKTKPREEQFNSTFRVVSVLTVVHQDWLNGKEYKCKVSNKGLPAPIEKTISKTKGQPREPQVYTLPPSREEMTKNQVSLTCLVKGFYPSDIAVEWESNGQPENNYKTTPPMLDSDGSFFLYSKLTVDKSRWQQGNVFSCSVMHEALHNHYTQKSLSLSPG
light: MSVPTQVLGLLLLWLTDARCQSVLTQPPSVSAAPGQKVTISCSGSTSNIANNYVSWYQQLPGTAPKLLIYANNRRPSGIPDRFSGSKSGTSATLGITGLQTGDEADYYCGAWDVRLDVGVFGGGTKLTVLGQPKAAPSVTLFPPSSEELQANKATLVCLISDFYPGAVTVAWKADSSPVKAGVETTTPSKQSNNKYAASSYLS
binding to CHO-parent cells versus CHO-GLP1R (specificity) (CHO-parent cells): bound equally to CHO-GLP1R and CHO-parent cells

binding to CHO-GLP1R (GLP1R): found to bind to CHO-GLP1R
B3: GLP1R-243: GLP1R scFv clone reformatted to IgG2; CDR-H3 SEQ ID NO 2301, heavy 2308, light 2315 (antibody)
heavy: MEWSWVFLFFLSVTTGVHSQVQLVQSGAEVKKPGSSVKVSCKASGGTFSTYGINWVRQAPGQGLEWMGGIIPIFGTANYAQKFQGRVTITADESTSTAYMELSSLRSEDTAVYYCARANQHFFGKGDNLAARDFINWLIQTKITDGSNPGYHYYGMDVWGQGTLVTVSSASASTKGPSVFPLAPCSRSTSESTAALGCLVKDYFPEPVTVSWNSGALTSGVHTFPAVLQSSGLYSLSSVVTVPSSNFGTQTYTCNVDHKPSNTKVDKTVERKCCVECPPCPAPPVAGPSVFLFPPKPKDTLMISRTPEVTCVVVDVSHEDPEVQFNWYVDGVEVHNAKTKPREEQFNSTFRVVSVLTVVHQDWLNGKEYKCKVSNKGLPAPIEKTISKTKGQPREPQVYTLPPSREEMTKNQVSLTCLVKGFYPSDIAVEWESNGQPENNYKTTPPMLDSDGSFFLYSKLTVDKSRWQQGNVFSCSVMHEALHNHYTQKSLSLSPG
light: MSVPTQVLGLLLLWLTDARCQSVLTQPPSVSAAPGQKVTISCSGSRSNIGKNYVSWYQQLPGTAPKLLIYENNERPSGIPDRFSGSKSGTSATLGITGLQTGDEADYYCSSYTTSNTQVFGGGTKLTVLGQPKAAPSVTLFPPSSEELQANKATLVCLISDFYPGAVTVAWKADSSPVKAGVETTTPSKQSNNKYAASSYLSLTPEQWKSHRSYSCQVTHEGSTVEKTVAPTECS

binding to CHO-GLP1R (GLP1R): found to bind to CHO-GLP1R
B4: GLP1R-241: GLP1R scFv clone reformatted to IgG2; CDR-H3 SEQ ID NO 2299, heavy 2306, light 2313 (antibody)
heavy: MEWSWVFLFFLSVTTGVHSQVQLVQSGAEVKKPGSSVKVSCKASGGTFSDYAISWVRQAPGQGLEWMGGIIPIFGTTNYAQKFQGRVTITADESTSTAYMELSSLRSEDTAVYYCAKHMSMQGSVAGGTFTSDVSSYLEGQAAKEFIAWLVKGGPSFIRADLVGDAFDVWGQGTLVTVSSASASTKGPSVFPLAPCSRSTSESTAALGCLVKDYFPEPVTVSWNSGALTSGVHTFPAVLQSSGLYSLSSVVTVPSSNFGTQTYTCNVDHKPSNTKVDKTVERKCCVECPPCPAPPVAGPSVFLFPPKPKDTLMISRTPEVTCVVVDVSHEDPEVQFNWYVDGVEVHNAKTKPREEQFNSTFRVVSVLTVVHQDWLNGKEYKCKVSNKGLPAPIEKTISKTKGQPREPQVYTLPPSREEMTKNQVSLTCLVKGFYPSDIAVEWESNGQPENNYKTTPPMLDSDGSFFLYSKLTVDKSRWQQGNVFSCSVMHEALHNHYTQKSLSLSPG
light: MSVPTQVLGLLLLWLTDARCQSVLTQPPSVSAAPGQKVTISCSGISSNIGNNYVSWYQQLPGTAPKLLIYDDDQRPSGIPDRFSGSKSGTSATLGITGLQTGDEADYYCGTWDNILSAAVFGGGTKLTVLGQPKAAPSVTLFPPSSEELQANKATLVCLISDFYPGAVTVAWKADSSPVKAGVETTTPSKQSNNKYAASSYLSLTPEQWKSHRSYSCQVTHEGSTVEKTVAPTECS
Average Tagg 266 [1]: 65.9 °C
Average Tm2 [1]: 75.7 °C
Average Tml [1]: 68.2 °C

binding to CHO-GLP1R (GLP1R): found to bind to CHO-GLP1R
B5: GLP1R-242: GLP1R scFv clone reformatted to IgG2; CDR-H3 SEQ ID NO 2300, heavy 2307, light 2314 (antibody)
heavy: MEWSWVFLFFLSVTTGVHSQVQLVQSGAEVKKPGSSVKVSCKASGGTFSSYEISWVRQAPGQGLEWMGGIIPILGIANYAQKFQGRVTITADESTSTAYMELSSLRSEDTAVYYCAKHMSMQADTGTFTSDVSSYLEGQAAKEFIAWLVKGEFSSRADLVGDAFDVWGQGTLVTVSSASASTKGPSVFPLAPCSRSTSESTAALGCLVKDYFPEPVTVSWNSGALTSGVHTFPAVLQSSGLYSLSSVVTVPSSNFGTQTYTCNVDHKPSNTKVDKTVERKCCVECPPCPAPPVAGPSVFLFPPKPKDTLMISRTPEVTCVVVDVSHEDPEVQFNWYVDGVEVHNAKTKPREEQFNSTFRVVSVLTVVHQDWLNGKEYKCKVSNKGLPAPIEKTISKTKGQPREPQVYTLPPSREEMTKNQVSLTCLVKGFYPSDIAVEWESNGQPENNYKTTPPMLDSDGSFFLYSKLTVDKSRWQQGNVFSCSVMHEALHNHYTQKSLSLSPG
light: B4 light with I45S, G50E, Y53D, D71G, D72N, I115T, A119G

binding to CHO-GLP1R (GLP1R): found to bind to CHO-GLP1R
B6: GLP1R-244: GLP1R scFv clone reformatted to IgG2; CDR-H3 SEQ ID NO 2302, heavy 2309, light 2316 (antibody)
heavy: MEWSWVFLFFLSVTTGVHSQVQLVQSGAEVKKPGSSVKVSCKASGGTFSSYAISWVRQAPGQGLEWMGGIIPIFGTANYAQKFQGRVTITADESTSTAYMELSSLRSEDTAVYYCARANQHFAATGAGEGQAAKEFIAWLVKGRVEIGYHYYGMDVWGQGTLVTVSSASASTKGPSVFPLAPCSRSTSESTAALGCLVKDYFPEPVTVSWNSGALTSGVHTFPAVLQSSGLYSLSSVVTVPSSNFGTQTYTCNVDHKPSNTKVDKTVERKCCVECPPCPAPPVAGPSVFLFPPKPKDTLMISRTPEVTCVVVDVSHEDPEVQFNWYVDGVEVHNAKTKPREEQFNSTFRVVSVLTVVHQDWLNGKEYKCKVSNKGLPAPIEKTISKTKGQPREPQVYTLPPSREEMTKNQVSLTCLVKGFYPSDIAVEWESNGQPENNYKTTPPMLDSDGSFFLYSKLTVDKSRWQQGNVFSCSVMHEALHNHYTQKSLSLSPG
light: B4 light with I45S, Y53V, D72N, Q74K, P76R, T111S, N114T, I115S, A118V, A119W

— US20250270737A1, “Antibodies That Bind GLP1R” (Twist Bioscience Corporation, priority 2019, published 2025)
